From paper PMC6536566

Target: VC-OsSLAC1 (rice (Oryza sativa))
Test: split reporter (BiFC, NanoBiT); BiFC with Venus halves (VN, VC) co-expressed in rice protoplasts; confocal microscopy; ER-mCherry as internal control, Venus signal/mCherry signal

BiFC fluorescence (Venus signal/mCherry signal) relative to VN-Hd3A with VC-SLAC1: 3 fold
B1: VN-SAPK10 (natural protein)
chain: MDRAALTVGPGMDMPIMHDGDRYELVRDIGSGNFGVARLMRSRADGQLVAVKYIERGDKIDENVQREIINHRSLRHPNIIRFKEVILTPTHLAIVMEYASGGELFERICNAGRFSEDEARFFFQQLISGVSYCHSMQVCHRDLKLENTLLDGSTAPRLKICDFGYSKSSVLHSQPKSTVGTPAYIAPEVLLKKEYDGKIADVWSCGVTLYVMLVGAYPFEDPDEPKNFRKTIQRILGVQYSIPDYVHISPECRDLIARIFVANPATRISIPEIRNHPWFLKNLPADLMDDSKMSSQYEEPEQPMQSMDEIMQILAEATIPAAGSGGINQFLNDGLDLDDDMEDLDSDPDLDVESSGEIVYAM
